# In the nanobody polyreactivity screen of Harvey et al. (2022):
# Assay: yeast display, Sf9 membrane polyspecificity reagent, FACS + sequencing; frameworks hold sequencing errors
# Method in brief: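 Polyreactivity labels are assigned by the sorting gate from which each nanobody was recovered. The gates were low and high (top ~1%), set on anti-HA fluorescence for expression and streptavidin fluorescence for reagent binding. Before sorting, galactose-induced (36–48 hours) yeast display cells were stained for 1 hour at 4 °C with 10% biotinylated, detergent-solubilized Sf9 membrane reagent.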
row,Sequence,polyreactivity (PSR sort gate)
1,QVQLVESGGGLVQEGGSLRLICAASGRTVNTNALGLYRQAPGKEREFVAAISRSGGSTRYADSVKGRFTISRDNAKNTVYLQLNSLKPEDTAVYYCAAVRFRPRGNEYWGQGTQVTVSS,high polyreactivity
2,QVQLVESGGGLVQEGGSLRLICAASGSTFWANAMGWYRQEPGKERELVAAISVRGGNTYYADSVKGRFTISRDNAKNTVYLQMNSLKAEVTAVYYCAARPISWTSYYDYWGQGTQVTVSS,high polyreactivity
3,QVQLVESGGGLVQEGGSLRLNCAASGRTFFRNTMGWYRQAPRKDSELFATISSSGGSTYYADSVKGLFTISRDTAKNTVYLQMNSLKPEDTAVYYCAAAPSKWYYGYGYWGQGTQVTVSS,high polyreactivity
4,QVQLVESGGGLVQEGGSLRLSCAACGRTFSWYAMGWYRQAPGKDRELVAAITSGGSTYYADSVKGRFTISRDNAMNTVYLQMNSLKPEDTAVYYCAAQAYVEGVYRYDYWGQGTQVTVSS,low polyreactivity
5,QVQLVESGGGLVQEGGSLRLSCAASGFTFRYYTMGWYRQATGKERELVATITWSGGGTYYADSVKGRFTISRDNAKNTVYLQRISLKPVDSAVYYCTAGLFYKAQYGYWGKGTQVTVSS,high polyreactivity
6,QVQLVESGGGLVQEGGSLRLSCAASGFTFSLNTMGWYRQAPGKERELVAAINSGDSTYADSVKGRFTISRDNAKNTVYLQMNSLKPEDTAVYYCNADPDWWYPYNYWGQGTQVTVSS,low polyreactivity
7,QVQLVESGGGLVQEGGSLRLSCAASGIIFLWYTMGWYRQAPGKERELVATISWAGGSTYADSVKGRFTISRDNAKNTVYLPMNSLKPEDTAVYYCNTEIYVDIISDYGYWGQGTQVTVSS,low polyreactivity
8,QVQLVESGGGLVQEGGSLRLSCAASGITFGSYAMGWYRQAPGKERELVAAIDTSGDDTYYADSVKGRFTISRDNAKYTVYLQMNSLKPEDTAVYYCAADFPSAEVDYWGQGTQVTVSS,low polyreactivity
9,QVQLVESGGGLVQEGGSLRLSCAASGITFGTNAMGWYRQAPGKERELVAAIRRDGSTYYADSVKGRFTISRDNAKNTVYLQMNSLKPEDTAVYYCAATYWGRAYQGYRNLLYGYWGQGTQVTVSS,high polyreactivity
10,QVQLVESGGGLVQEGGSLRLSCAASGRIFYSNAMGWYRQAPGKERENVAAISWSGGGTYYADSVKGRFTISRDNAKNTVYLQMNSLKPEDTAVYYCAAVFGYSWAFEYDYWGQGTQVTVSS,low polyreactivity
11,QVQLVESGGGLVQEGGSLRLSCAASGRILYGYAMGWYRQAPGKERELVASITSSGGSKYADSVKGRFTISRDNAKNTVYLQMNSLKPEDTAVYYGATRRGPKWQWLTYGYWGQGTQVTVSS,low polyreactivity
12,QVQLVESGGGLVQEGGSLRLSCAASGRISYIYAMGWYRQAQGKERELVAAITRGGSTNYADSVKGCFTISRDNAKNTVYLQMNSLKPEDTAVYYCAARRRRSGGYEYDYWGQGTQVTVSS,high polyreactivity
13,QVQLVESGGGLVQEGGSLRLSCAASGRTFAYNVKGRYRQAPGKVRELVAGISFGAGSTYYADSVKGRFTISRDNAKNTVYLHMNSLKPEDTAVYYCATRRRGTRYPRGYDYWGQGTQVTVSS,high polyreactivity
14,QVQLVESGGGLVQEGGSLRLSCAASGRTFDSYTMGWYRPAPGKQRELVADITFTGGSTYYADTVKGRFTISRDNAKYIVFLQMNSLKPEDTAVYYCNADREYKWYFRYDYWGQGTQVNVSS,low polyreactivity
15,QVQLVESGGGLVQEGGSLRLSCAASGRTFSYNAMGWYSQAPGKERELFAAITGRGGSTYYADSVKGRFTISRDNAKKTVYLQMNRLKPEVTAVYYCNAVDAGYHRDRDYWGLGTQVTVSS,low polyreactivity
16,QVQLVESGGGLVQEGGSLRLSCAASGRTFYRNAMGWYRQAPGKERELVAAISSDDSTNYADSVKGRFTISRDNAKNTVYLQMNSLKPEDTAVYYCNADYYYGYEYDYWGQGSQVTVSS,low polyreactivity
17,QVQLVESGGGLVQEGGSLRLSCAASGRTFYTNAMGWYRPAPGKERELVAVISRGGTTFYADSVKGRFTISRDNAKNTVYLQMNSLKPEDTAVYYCAKQRPSGDSSSQMGSWGQGTQVTVSS,low polyreactivity
18,QVQLVESGGGLVQEGGSLRLSCAASGRTSGFNTMGWYRQAPRKERELVAAISFSGGSTYYADSVKGRFTISRDNAKNTVYLQMNSLNPEDTAVYYCNALYRYLYRSGDYWGHGTQVTVSS,low polyreactivity
19,QVQLVESGGGLVQEGGSLRLSCAASGSHFTRYVMGWYRPAPGKERELVAAITTGGSTYYADSVKGRFTISLDNAKNTVYLQMNSLKPEDTAVYYCAADRRTVSYKYNYWGQGTQVTVSS,high polyreactivity
20,QVQLVESGGGLVQEGGSLRLSCAASGSIFGVYTMGWYRPEPGKERELVAAINWGGTSTYYADSVKGRFTISRDNAKNTVYLQMNSLKPEDTAVYYCNAERRRRYPYNYWGHGTQVTVSS,high polyreactivity
21,QVQLVESGGGLVQEGGSLRLSCAASGSIFKQYAMGWYRQAPGKERELVAAISYSGGTTYYADSVKGRFTISRDNAKNTVYLQMNSMKPEDTAVYYCAAEWWILSYRFDYWGQGTQVTVSS,high polyreactivity

row,Sequence,polyreactivity (PSR sort gate)
1,QVQLVESGGGLVQEGGSLRLSCAASGSIFNTYAMGRYRQAPGKEREMVAGITKTGSRTYYADSVKGRFTISRDNAKNTVYLQIHILKPEDTAVYYCNARIWPRSYRYDYWGQGTQVTVSS,high polyreactivity
2,QVQLVESGGGLVQEGGSLRLSCAASGSIFSTYVMGWYRQAPGKERELVAAISRRGGSTYYADSVKGRFTISRDNAKNTVYLQMNSLKPEDTAVYYCAADGTVGRRDYWGQGTQVTVSS,high polyreactivity
3,QVQLVESGGGLVQEGGSLRLSCAASGSIFWPNAMGWYRQAPGKERELVAAISWGTGSTYYADSVKGRFTISRDNAKNTVYLQINSLKPEDSAVYYCNAEYVVAFGYQYGEYDYWGQGTQVTVSS,low polyreactivity
4,QVQLVESGGGLVQEGGSLRLSCAASGSLFDVYAMGWYRQAPGKERELVAAISSSGSTYYADSVKGRFTISRDNAKNTVYLQMNSLKPEDTAVYYCAADQADDDDYYYWGQGTQVTVSS,low polyreactivity
5,QVQLVESGGGLVQEGGSLRLSCAASGSTFRRNAMGWYRQAPGKERELVAAISTSGGTTYYADSVKGRFTISRDYAKNTVYLQMNSLKPEDTAVYYCAAGGKKRDDYWGQGTQVTVSS,high polyreactivity
6,QVQLVESGGGLVQEGGSLRLSCAASGSTFSFYAMGWYRQAPGKERELVAAIDSGGRTKYADSVKGRFTISRDNAKNTVYLQMNSLKPEDSEVYYCGAVFRGWWLYDYWGKGTQVTVSS,low polyreactivity
7,QVQLVESGGGLVQEGGSLRLSCAASGSTFVHYDMGWYRQAPGKERELVAGITDTDNHELRRLCEGRFTISRDKAKNTVYLQMNSLKPEDTAVYYCNADDTYYPLGGITGYDYWGQGTQVTVSS,low polyreactivity
8,QVQLVESGGGLVQEGGSLRLSCAASGYIFKYYAMGWYRQAPGKERELVAAIRYSGGITYYADSVKGRFTISRDNAKNTVYLQMQSLKPEDTAVSYCAADYIITYRSGRREYVYWGQGTQVTVSS,high polyreactivity
9,QVQLVESGGGLVQEGGSLRLSCAASGYIFYEYAMGWYRQAPGKERELVAAISYSGGSTYYADSVKGRFTISRDNAKNTVYLQMNSLKPEDTAVYYCAAVGSVRYREGYDYWGQGSQVTVSS,high polyreactivity
10,QVQLVESGGGLVQEGGSLRLSCAATGLTFVYYEMGWYRQAPGKERELVADITYIGTSTYYADSVKGRFTISLDNAKNTVYLQMNSLKPEDTEVYYCAAPFPIRSGESWRTDLGYDYWGQGTQVTVSS,low polyreactivity
11,QVQLVESGGGLVQEGGSLRLSCADSGFTSCDNDMGWYRQAPGKERELVAAISRGGSTNYADSVKGRFTISRDNAKNTFYLQMNSLKPEDSEVYYCATAAVTPVWYDYWGKGTQVTVSS,low polyreactivity
12,QVQLVESGGGLVQEGGSLRLSCASSGYTFPYYAMGWYRQAPGKERELVAAIRSGGGTNYADSVKGRFTISRDNAKNTVYLQMNSLKPEDTADYYCAKEWAGGLYDYWGQGTQVTVSS,low polyreactivity
13,QVQLVESGGGLVQEGGSLRLSCGASGSIFSCYAMGWYRQAPGKERELVAGITWSGGSTYYADSVKGRFTNSRDNAKNTVYLQMNSLKPEDTSVYYCAAKYYWYYSDSGIPLFDYWGQGTQVTVSS,low polyreactivity
14,QVQLVESGGGLVQEGGSLRLSCSASGRIFGSYAMGWNRPATGKERELVAAINSSGGRTYYADSVKGRFTISRDNAKNTVYLQMNSLKPDVTAVYYCNARRVYSQRYDYWGQGTQVTVSS,high polyreactivity
15,QVQLVESGGGLVQEGGSLRLSSAASGRTFGTNPMGWYRQAPGKERELVAAISTRDGSTYYADSVKGRFSISRDNAKNTVYLQMNSLKPEDTAVYYCNAVVRYYDWGYLDYDYWGQGTQVTVSS,low polyreactivity
16,QVQLVESGGGLVQEGGSLRLTCAASGRIFQRYAMGWYSPPPGKERELVAVITKRGGNTYYADSVKGRFTLSRDNAKNTVYLQMNSLKPEDTAVYYCATRSGRSTGDYWGQGTQVTVSS,high polyreactivity
17,QVQLVESGGGLVQEGGSLRLTCAASGRIFVYNAMGWYRQAPRKDRELVAAISWRGDGTYYADSVKGLFTISRDNAKITVYLQMNSLKPEDTAVYYCAADYVYYYHEYDYWGQGTQVTVSS,low polyreactivity
18,QVQLVESGGGLVQEGGSLRVSCAASGSTLIRNVMVRYRQAPGKERELVAVITYGVGSTYYADSVKGRFTISRDNAKNTVYLQMNSLKPEDTAVYYCNKDPLVFDYWGQGTQVTVSS,low polyreactivity
19,QVQLVESGGGLVQGGGSLRLSCAASGFIFDDNSMGWYRQAPGKERELVAAITSGGGSTYYADSVKGRFTISRDNAKNTVYLQMNSLKPEDTAVYYCNAVPSQHDEFDYWGQGTQVTVSS,low polyreactivity
20,QVQLVESGGGLVQGGGSLRLSCAASGITFGDYAMGWYRQAPGKERELVAGINWSGDGTYYADSVKGRFTISRDNAQNTDYLQLNSLKPEDTAVYNCAAETFYDYGGYDYWGQGTQVTVSS,low polyreactivity
